This is an account of results in the PETadex activity labels (doi:10.1021/acsomega.4c04843).

B1: unnamed (protein)
chain: MVPTTVDFDTLCPEPIFQDRWVATPRGRVFTRTWETSHLRSDVPIVLLHDSLGCVDLWRSFPAALCAATQRRVIAYDRLGFGRSDACLTPPLLSFIDDEPSTSFAALQSAFQLTHFIALGHSVGGCMAVHCAGQYVEQCQGLITIAAQAVNEPRTQQGIEEARAAFQMPEQFAKLEKYHGNKARWVLNGWIDTWLHPAFEHWSLTPALQHVHCPTLVLHGENDEYGSHRQPEGIARHTRGPAHTEILPGVGHVPHREVEAVVVHYVSEFIERLTP
B2: unnamed (protein)
chain: MRKETAWFVGGAAIAAATAAGASVWSQYGSLVRWQEPELPIQPTTRRRHTYTYKIVHDRPLQFDLYLPPGEGPFPVAVYAHGGAFVRGNRSMVTLFHPLLDHFLGKGIAVVSIDYRLFEDGVYFPDNIFDVSDALCYLKQHESLLTLDTSQLLVWGDSAGAALMLATALDRYRQFAGDLGDDLPTIKGVIALYPPTNFLLFKFIQTWLAHLKFYEGSREEWRELMVKCSPVSHLYADAPPILLLHGKKDPIVPFGQALHFVEHASDVGANVQLISFPNGTHSLASFLQSDNPIKEEQLMARINRFIEECLG
B3: unnamed (protein)
chain: MPPFRSSRWLSGGHVQTLYSPLWRASPQLQRRRERMTLQDGDFIDLDWYGPEGEATNCVLLLHGLTGSSASLYILGQQQALAARGWQSAAVNWRGCSGEPNHRARGYHSGVSEDLADVVKQLTLRYPHKLFAAIGYSLGGNVLLKYLGEKGSNTPLKAAVAVSVPFRLDHCAERINKGFSRVYQARFLRGLRRYVEHKRQAFLRQGRRGELARLAALETLKGMKTFWDFDGRVTAPLHGFESADDYYRRCSSAFFVEQIRIPTLIVHSLDDPFIYPQSVPKAEVLPSCVTLELHASGGHVGFIEGPPWRPRYYLEHRLPNWLQSQLCSQGKTHNTSALLSN
B4: unnamed (protein)
chain: MFRFHIVSALLTLFIAVPSQAHDVGQREIKISGAEPGRNLEVSVWYPAAIDGKATLIGDNIIFKGAPAVIDATPEKGSFPLLVMSHGSGGRAQGMAWLATELVKAGIIVAAPNHPGTTSGDSTPQDTPKIWQRTGDLSAVIDTMTTDPAWSGIIDKNKISVLGWSLGGAAAMEIAGARANLEAYARYCDTYGKWDCAWYAGGIGYRDDKQIKVDKVDLRSVDKSRFEQSNLDRRIASAIMIDPGLAQAYDAQSLASISIPMSFINLGEVETIPTGVVADKLASITPQGTYVTVAGATHFSFLPECKKGAADRLKSAGEVDPICSDDARRPRADIHADITKLVLKALQSMPKT
B5: unnamed (protein)
chain: MFRFHIVSALLTLFIAVPSQAHDVGQREIKISGAEPGRNLEVSVWYPAAIDGKATLIGDNIIFKGAPAVIDATPEKGSFPLLVMSHGSGGRAQGMAWLATELVKAGIIVAAPNHPGTTSGDSTPQDTPKIWQRTGDLSAVIDTMTTDPAWSGIIDKNKISVLGFSLGGAAAMEIAGARANLEAYARYCDTYGKWDCAWYAGGIGYRDDKQIKVDKVDLRSVDKSRFEQSNLDRRIASAIMIDPGLAQAYDAQSLASISIPMSFINLGEVETIPTGVVADKLASITPQGTYVTVAGATHISFLPECKKGAADRLKSAGEVDPICSDDARRPRADIHADITKLVLKALQSMPKT
B6: unnamed (protein)
chain: MFRFHIVSALLTLFIAVPSQAHDVGQREIKISGAEPGRNLEVSVWYPAAIDGKATLIGDNIIFKGAPAVIDATPEKGSFPLLVMSHGSGGRAQGMAWLATELVKAGIIVAAPNHPGTTSGDSTPQDTPKIWQRTGDLSAVIDTMTTDPAWSGIIDKNKISVLGHSLGGAAAMEIAGARANLEAYARYCDTYGKWDCAWYAGGIGYRDDKQIKVDKVDLRSVDKSRFEQSNLDRRIASAIMIDPGLAQAYDAQSLASISIPMSFINLGEVETIPTGVVADKLASITPQGTYVTVAGATHFSFLPECKKGAADRLKSAGEVDPICSDDARRPRADIHADITKLVLKALQSMPKT
B7: unnamed (protein)
chain: MFRFHIVSALLTLFIAVPSQAHDVGQREIKISGAEPGRNLEVSVWYPAAIDGKATLIGDNIIFKGAPAVIDATPEKGSFPLLVMSHGSGGRAQGMAWLATELVKAGIIVAAPNHPGTTSGDSTPQDTPKIWQRTGDLSAVIDTMTTDPAWSGIIDKNKISVLGFSLGGAAAMEIAGARANLEAYARYCDTYGKWDCAWYAGGIGYRDDKQIKVDKVDLRSVDKSRFEQSNLDRRIASAIMIDPGLAQAYDAQSLASISIPMSFINLGEVETIPTGVVADKLASITPQGTYVTVDGATHFSFLPECKKGAADRLKSAGEVDPICSDDARRPRADIHADITKLVLKALQSMPKT
B8: unnamed (protein)
chain: MFRFHIVSALLTLFIAVPSQAHDVGQREIKISGAEPGRNLEVSVWYPAAIDGKATLIGDNIIFKGAPAVIDATPEKGSFPLLVMSHGSGGRAQGMAWLATELVKAGIIVAAPNHPGTTSGDSTPQDTPKIWQRTGDLSAVIDTMTTDPAWSGIIDKNKISVLGFSLGGAAAMEIAGARANLEAYARYCDTYGKWDCAWYAGGIGYRDDKQIKVDKVDLRSVDKSRFEQSNLDRRIASAIMIDPGLAQAYDAQSLASISIPMSFINLGEVETIPTGVVADKLASITPQGTYVTVAGATAFSFLPECKKGAADRLKSAGEVDPICSDDARRPRADIHADITKLVLKALQSMPKT
B9: unnamed (protein)
chain: MFRFHIVSALLTLFIAVPSQAHDVGQREIKISGAEPGRNLEVSVWYPAAIDGKATLIGDNIIFKGAPAVIDATPEKGSFPLLVMSHGSGGRAQGMAWLATELVKAGIIVAAPNHPGTTSGDSTPQDTPKIWQRTGDLSAVIDTMTTDPAWSGIIDKNKISVLGFSMGGAAAMEIAGARANLEAYARYCDTYGKWDCAWYAGGIGYRDDKQIKVDKVDLRSVDKSRFEQSNLDRRIASAIMIDPGLAQAYDAQSLASISIPMSFINLGEVETIPTGVVADKLASITPQGTYVTVAGATHFSFLPECKKGAADRLKSAGEVDPICSDDARRPRADIHADITKLVLKALQSMPKT
B10: unnamed (protein)
chain: MFRFHIVSALLTLFIAVPSQAHDVGQREIKISGAEPGRNLEVSVWYPAAIDGKATLIGDNIIFKGAPAVIDATPEKGSFPLLVMSHGSGGRAQGMAWLATELVKAGIIVAAPNHPGTTSGDSTPQDTPKIWQRTGDLSAVIDTMTTDPAWSGIIDKNKISVLGFSLGGAAAMEIAGARANLEAYARYCDTYGKWDCAWYAGGIGYRDDKQIKVDKVDLRSVDKSRFEQSNLDRRIASAIMIAPGLAQAYDAQSLASISIPMSFINLGEVETIPTGVVADKLASITPQGTYVTVAGATHFSFLPECKKGAADRLKSAGEVDPICSDDARRPRADIHADITKLVLKALQSMPKT
B11: unnamed (protein)
chain: MFRFHIVSALLTLFIAVPSQAHDVGQREIKISGAEPGRNLEVSVWYPAAIDGKATLIGDNIIFKGAPAVIDATPEKGSFPLLVMSHGSGGRAQGMAWLATELVKAGIIVAAPNHPGTTSGDSTPQDTPKIWQRTGDLSAVIDTMTTDPAWSGIIDKNKISVLGFSLGGAAAMEIAGARANLEAYARYCDTYGKWDCAWYAGGIGYRDDKQIKVDKVDLRSVDKSRFEQSNLDRRIASAIMIDPGLAQAYDAQSLASISIPMSFINLGEVETIPTGVVADKLASITPQGTYVTVAGATHWSFLPECKKGAADRLKSAGEVDPICSDDARRPRADIHADITKLVLKALQSMPKT
B12: unnamed (protein)
chain: MFRFHIVSALLTLFIAVPSQAHDVGQREIKISGAEPGRNLEVSVWYPAAIDGKATLIGDNIIFKGAPAVIDATPEKGSFPLLVMSHGSGGRAQGMAWLATELVKAGIIVAAPNHPGTTSGDSTPQDTPKIWQRTGDLSAVIDTMTTDPAWSGIIDKNKISVLGFSLGGAAAMEIAGARANLEAYARYADTYGKWDCAWYAGGIGYRDDKQIKVDKVDLRSVDKSRFEQSNLDRRIASAIMIDPGLAQAYDAQSLASISIPMSFINLGEVETIPTGVVADKLASITPQGTYVTVAGATHFSFLPECKKGAADRLKSAGEVDPICSDDARRPRADIHADITKLVLKALQSMPKT
B13: unnamed (protein)
chain: MFRFHIVSALLTLFIAVPSQAHDVGQREIKISGAEPGRNLEVSVWYPAAIDGKATLIGDNIIFKGAPAVIDATPEKGSFPLLVMSHGSGGRAQGMAWLATELVKAGIIVAAPNHPGTTSGDSTPQDTPKIWQRTGDLSAVIDTMTTDPAWSGIIDKNKISVLGFALGGAAAMEIAGARANLEAYARYCDTYGKWDCAWYAGGIGYRDDKQIKVDKVDLRSVDKSRFEQSNLDRRIASAIMIDPGLAQAYDAQSLASISIPMSFINLGEVETIPTGVVADKLASITPQGTYVTVAGATHFSFLPECKKGAADRLKSAGEVDPICSDDARRPRADIHADITKLVLKALQSMPKT
B14: unnamed (protein)
chain: MLHYKTYTISDDHPWVIFIHGAGGSLSHWYRQLRPFRKKYNVLLVDLRGHGGSYDAEQSLKQPLNAYTFDVVAKDVIEVMDHLGIEKGHMVGLSLGTIVIQAMFEHYPDRIASVVLGGAIVKFNVRSTMLIRLGSLVQNFVPYMWLYKLFAWILLPKKRHKKSRMMFVRDAANLCQREFIRWFKMTENINPLLNQFTSIQTNVPILYIMGDEDYMFLEAVERTAKHQPTANVEIVADSGHVVNVDQPDQFNALSMNFIDDQIQARSLQMS

Substrate in the first data set: pNPB
The data set can be described thus: Proxy for plastic degradation [p-nitrophenol (pNP) release]. Particulars: pH 7.4.
On to B1, for which the “Proxy for plastic degradation” value was 30 U/mL.
Consider B2, for which the “Proxy for plastic degradation” value amounted to 25 U/mL.
Consider B3, for which the “Proxy for plastic degradation” value was found to be 3 U/mL.
Same read-out and setting: for B4 the value was 5 U/mL.
Still for that read-out and setting: the figure for B5 is 75 U/mL; for B6 it is 15 U/mL; for B7 it is 100 U/mL.
With B8, the “Proxy for plastic degradation” value turned out to be 15 U/mL.
Regarding B9, the “Proxy for plastic degradation” value was 225 U/mL.
For the protein B10, the “Proxy for plastic degradation” value amounted to 20 U/mL.
For B11, the “Proxy for plastic degradation” value stood at 110 U/mL.
As to B12, the “Proxy for plastic degradation” value turned out to be 10 U/mL.
With B13, the “Proxy for plastic degradation” value was determined as 15 U/mL.
On the same count and under the same terms, for B14 the value was 4 U/mL.

Substrate in the next data set: PET
In words: Proxy for plastic degradation [Released monomer concentration (HPLC/LC-MS) (TPA)]. Particulars: pH 8.
With B7, the “Proxy for plastic degradation” value was determined as 1 mM/mg.
